Experimental data published in publication PMC4655364, “HdeB chaperone activity is coupled to its intrinsic dynamic properties” (Scientific Reports, 2015).

Target: the molecule itself
Test: NMR backbone 15N relaxation (R2/R1, model-free analysis); pH 7.0, 5.0, 4.5 and 4.0; 25 °C, 800 MHz; 50 mM sodium phosphate, 45 mM citric acid

B1: E. coli HdeB (natural protein, UniProt P0AET2 30-108, looked up)
chain: ANESAKDMTCQEFIDLNPKAMTPVAWWMLHEETVYKGGDTVTLNETDLTQIPKVIEYCKKNPQKNLYTFKNQASNDLPN
notes: HdeB, periplasmic acid-resistant chaperone of E. coli; 79 residues; numbers count on: the mature protein, with the signal peptide excluded; Expressed from pET-28a(+); It speaks of 79 residues and numbers them on the mature protein; Samples were 15N- or 13C/15N-labelled; Each monomer has a Cys10-Cys58 disulfide bridge; also called HdeB dimer; HdeB homo-dimer; source: E. coli BL21(DE3)-T1R, …
  stoichiometry N: 2
